The values below come from patent US20070031832A1.

For test [1], the target named is anti-Der p 1 monoclonal antibody 2C7. Description: T7-DELFIA, comparison phage on 2C7-coated wells, time resolved fluorometry.
Test [2] shares this target. Description: T7-DELFIA, 50 µl phage lysate on 2C7-coated wells, time resolved fluorometry.

For the molecule T7wt, the TRF in test [1] was determined as 500 TRF.

B1: 2c7pan8 (peptide, not shown: large carriers)
chain: GDPNSSTSPR
Regarding B1, the TRF in test [2] was 1900 TRF.

B2: 2c7pan42 (peptide, not shown: large carriers)
chain: GDPNSSSVDKLGYWRVTESSNE
Consider B2, for which the TRF in test [2] was 64000 TRF.

B3: 2c7pan9 (peptide, not shown: large carriers)
chain: GDPNSASGTA
Consider B3, for which the TRF in test [2] was determined as 17000 TRF.

B4: 2c7pan14 (peptide, not shown: large carriers)
chain: GDPNSRGKSREYLS
B4 yielded a TRF in test [2] of 1800 TRF.

B5: 2c7pan26 (peptide, not shown: large carriers)
chain: GDPRTHR
B5 gave a TRF in test [2] of 8500 TRF.
